Molecular target: Phosphatidylinositol 4-kinase alpha (PI4KA), subunit of the PI4KA complex (human, UniProt P42356 1-2102)
Assay: cryo-EM structure

binding result: binds
B1: TTC7B, subunit of the PI4KA complex (natural protein)
chain: MATKKAGSRLETEIERCRSECQWERIPELVKQLSAKLIANDDMAELLLGESKLEQYLKEHPLRQGASPRGPKPQLTEVRKHLTAALDRGNLKSEFLQESNLIMAKLNYVEGDYKEALNIYARVGLDDLPLTAVPPYRLRVIAEAYATKGLCLEKLPISSSTSNLHVDREQDVITCYEKAGDIALLYLQEIERVILSNIQNRSPKPGPAPHDQELGFFLETGLQRAHVLYFKNGNLTRGVGRFRELLRAVETRTTQNLRMTIARQLAEILLRGMCEQSYWNPLEDPPCQSPLDDPLRKGANTKTYTLTRRARVYSGENIFCPQENTEEALLLLLISESMANRDAVLSRIPEHKSDRLISLQSASVVYDLLTIALGRRGQYEMLSECLERAMKFAFEEFHLWYQFALSLMAAGKSARAVKVLKECIRLKPDDATIPLLAAKLCMGSLHWLEEAEKFAKTVVDVGEKTSEFKAKGYLALGLTYSLQATDASLRGMQEVLQRKALLAFQRAHSLSPTDHQAAFYLALQLAISRQIPEALGYVRQALQLQGDDANSLHLLALLLSAQKHYHDALNIIDMALSEYPENFILLFSKVKLQSLCRGPDEALLTCKHMLQIWKSCYNLTNPSDSGRGSSLLDRTIADRRQLNTITLPDFSDPETGSVHATSVAASRVEQALSEVASSLQSSAPKQGPLHPWMTLAQIWLHAAEVYIGIGKPAEATACTQEAANLFPMSHNVLYMRGQIAELRGSMDEARRWYEEALAISPTHVKSMQRLALILHQLGRYSLAEKILRDAVQVNSTAHEVWNGLGEVLQAQGNDAAATECFLTALELEASSPAVPFTIIPRVL

— doi:10.1101/2024.04.09.588654 (bioRxiv, 2024)
